Measured values reported in a protein production outcome set (Wang et al. 2014).

test: label from the status in PepcDB records

Sequence | protein production
MAPFSSSSAEIKIARTAPFSSSAENKGNRQINGASSSASSCDAENAKSGGSRQLGKAAYMEGKHVDALQIFMWMHRKEMSFSTSEVALFVDIIGNTIGIAAAHSYLKKVDPNCDQMHNRTENWPAFVSLVKLETKLLKENGIVHATRPPK | failed
MAPGAAQELQAKLAEIGAPIQGNREELVERLQSYTRQTGIVLNRPVLRGEDGDKAAPPPMSAQ | failed
MAPHPEAAALLARSHRLGADPRNTNYAGGNASAKGTATDPVTGGDVELMWVKGSGGDLGTLTEAGLAVLRLDRLHALKGVYPGVEREDEMVAAFDYCLHGKGGAAPSIDTAMHGLVDAAHVDHLHPDSGIALACAADGEKLTAECFGDSVAWVPWRRPGFQLGLDIAAVKEANPQTIGCVLGGHGITAWGATAEECERNSLHIIRTAEAFLAERGKAEPFGPLEHHHHHH | failed
MAPKAQKSPKGQRKGKKKTKQQSLVSEEEEPMNMESMDVAPGSSPDLDISMASDGHPEIYPLVLTAKTQEIFNCRIDEDMTDEQTYKLIKKEDILADLQNRAAVSDFHPVKKIVLEYPGEELLLVYDKDFKYGLNFYLIGTEEGKENFLKAPEIPEEQEDLKEHVPEDVYIYKPPVSKPWISLGSEKEIEEESVQESKKRVTYMISRKRSQFGAPVTFRDQNASSVKDAYIECTSYPDKSYTLTQVEKDIGLQVIAEVKDTSTQTRWAFPRNATTQYYPREFSEEEKNVLVESKSLAEFFSTVSTSVEIALQQNEIMNTFTDDWRSLAEEESTFGDKTDTHLKEYQSFTDLHNTMEKMITCVSWHPTIYGLIVVSVAVRLSYEERVQNSSRLLLQPSLILFWSFSDPIHPQLMLESPDDIFCFEFCPSDPNIIAGGCINGQIILWDITAHAERIENIKTGGSRSKKATLKPMFLLEPDSNKEIMYVRHCAVSSIENGHRKVITDIHWLPDSFEINRMGSVFENRSGINCQLITCSADCTICFWDIRPQKPTVTSAATATTTSTTNTNPQQPPAEKKKEESIEIPFDVPSTFLHLDLSWKPLSRIKLSKGETSLDHCPTKLSLGEDPALCKIQDKMLSQMKLLKAAEINPYQNLEGGMANMLKPIEDFRTKFFVGTEEGEVIYTDWKMERDSETGRLMAKKPVNLYTVHDGAVHTVQRSPFFNDIILTVGGWNVAIWKEEVLTGPLLQTCCAPKRYTAGHWSLTRPGVFYIGREDGYVDIWDLLEKTHEPAQSQSICITMITYIKPWTFSCRPPFLPQADRSMMVSLLMSMRHSAKPSGDQNPVSSVNYYFEREVKHLEYVQQRKEIREEEKKAMAMEMIKKKAKTYHRSKEQMEAELKLEYESYLELEQSVLFALGLGKVSEKMSYLDLH | failed
MAPKKIGAGKGDSSILAKISNYDIVSQGRRAACDAVYVSKKLLKSTGKAAWIAGTTFLILAVPLILELEQDHRLGEIDFEQASLLGTPPVGAML | failed
MAPMIPHPPAVLAHRLSEGQRLATPLMRALMRATGTQVDAAIARTIAELGAHCGADRTRVYRIEAGQVLDCTHEWCRSGISEIRPEMQRIPLGTLDRWMPILRRGEPVDVPDLHGLPEDDPAKQQMARHGIRALVLMPLTAGTALTGVVGLSLFRARRPVDPAEMALLHSIAEAMGAALARRDAERRAVAARSAARDVARNLERLARVTELMTNLVIVTDVEQQIVWVNRAFERQTGHSLEAIRGRNFAEVVRGPGTDPGVCAAVAEAIRTCSSCEGETINYTAAGQPYWIRFNAHPLSDADGRYAGHASVETVITDRKVLERELATRNAFLTAVLQTSVSAIVALNAEGGIVYANDEARRLLVLQPHRGGLRMEAVLETLDGRPLPEADMPSALVRATGAPLHDLRYAIRRPDGQFGILSINAAPLPQAADDARIVISVTDITHAEASAERLRRQAAEDPLTGLANRRALADAVETRLTEAAPFALVMLDLDNFKAVNDLQRHDTGDAVLRIAADRLRAVAGADCLVARMGGDEFMVLAPGTDAASAPRLAEALRAAISAPIEVGRQPVHLAASAGIALHPEHGTSMALLMTGADIALHAAKRAGRNRSVLLSQAQFAAEARRSAITQALAADVEADLRLVFQPQFRACGAFDGAEALLRWTDPRLGEIGPAEFIPIAEEAGLIQRIDAHVAVLAARQLGLWARRGWRHRLAVNASAQTFARAGFAEELLQHLAEEDVCPQQLVVELTDTSLATLSSVADHNIATLRRAGVGIAIDDFGTGYASLSYLHRIEATEIKIDRGFVAGLETAERRDSKPLIQAILSLAHALGLAVTAEGVETERQRSWLSAEGCDRLQGYLLGRPLPVEAFEAAFVTPAAVPG | failed
MAPPAQKGNLRKRSGKTSTAVNSAINENVRKLVRSLSEPGTSQKKLRQMEDTALKIIANQRRTWAPTTTDMEVKRNLDDLAERFRAEGMASFGESIKDLAIRYLAMDENQQQFNPNPGWQMLELLFRIADRPVQKIRLNREFMEQRRLSIINSMEEAERQAQIEEQAKLEAAKNTSETEVDWAALLSEDFLDPPEDDSSDSLSDWSEESDCDSTTTLKPDENIGVSRSLLEMARVYEQAMMAVVPTGSVNKTYMPPEQSVIRSYDFRIMKPTVLSLNNLKGSHLRRSKLLQLPPPQPPRPFTQYWQSGNTDTLFRKIHSHWWCQDVHLNALPSSAKPLDNFAVSYVQFLNHNARGLLALPVPKTITEPCLLREILFMFVRPASCCFFEFDKATRRITVRDNVSICTVTASTMQNFLLFNVVPALEDMMELRHIIDTHTLHFHGVKTTYTVEFFAYGLRDLVQPICQLLIAYEDRVNKDPAKNTLIRFTIEFREHFSQLRLLRELAEDVILDKGPAHIRSAYLLSRLYKHTLLQVPHQKLATALLFISLKRYCIIIDGWWRRAALEDHLREFIVEFCYEEDANTRSHVRKRNMGMEDDLLLVEIFNKLQSCPLYQLLLEHALESGETQDLLCSVNTLSEMLTSNNEIQLPSLHDELFTQFFAQLKVYCGADNTDYEDEPEPDKDYEDLTVCNRQGIRNHELFAIFTQPLVEQRLERQRERLKSNPVLMANILKRLERSTCLQLKSELPEALREILRRRQWLANEYAIRAYCKETQVAEKMRFLRHTMLLEKYYLFVPYYNALFVRMEKNNSWALGSVLTSKLCAVLLPHYPQLAHYLHVKLISQINSNSIKVYEALEAIELDFERPMAMHQWYILTPAHMQDYNSVWRLMLKVKWAVWKLENMQFLRRARFNPCAPLDLIGLTIRRLEIVRFWLIFLINNLHAHIMEAVSRQFELRIGECKNVRELRIMHDEHLAWLKTHCMLTDEFKAFRVALDQIFHLVYVLDMEWTTCASCMHDHDALCLDFTISDDGIDDSETQRRSLEYLALNQVAEIELTYIRCHQMLADILNTLVHQNDHGFLSALEETINSSVPH | failed
MAPRDIRPGAEYGDIIEEAIVTCKVFLIVFSETSQISRWVRSELNIGFSSNKPIIPFRIDPTDLKGSMKLMLNDKHWLNAYPNPEEKFSELAAVILDLLQHPAVDTISPPGFQPASNVASADGSNAGAQGLFGKLLNQLFVKRRVKVTSDHAAEIFLNGERKGKLDAYETGNYSVSEDFYQLEVYSCEYGKKVKCEYSGSFSNSSTVIISVDMATAEKQYLMKAKNITSGQINDLGIIFLDEGKFEDAQECFLKAASMGEAAAAYNLGMMYHFGKGVEIDYDVAREYYEEAVKSDYPLALNNLGSIYYNGHGVRKDIAKSFPYFCRAAERGVESAQFTVATMLFYGQGVAVDKAKAKKWFQKAAAQGCKDSQNYLNSWVDDLEHHHHHH | not failed
MAQFLEKATSALSEAKESVTSTAESVTASLTDAEKTVNQTARSTLTDAETTVAASVETVKTEAAAAPDKASGVSTQAKDAVDKAFSRGIEGAKSLLQTFEAKSSDISSKLVGGVTNLVSGASSSTVANRDLPVSTDNQPLLASGEKTPWWKNCCGVLDLFKKDT | failed
MAQFLRRFSSSPMANEDEFQSPVEPSQQQSQDCVSESYLIGFVIANIVGLKYYSGRINGREMVGLVREPLNVYDNNAIRVLNTRSEQVGHIERTVAAVLAPMIDSHTIVVEGIVPNTRSNSNRYRIPCQIHVFAKLEASSTVKSTISRGGLVLISESDTSFGLSEAVVVKEQMGNGDKRSVDKIFKLVDENVKLMGKLVAAEPPREVIKSELFAHQKEGLGWLLHREKSGELPPFWEEKDGEFLNTLTNYRSDKRPDPLRGGVFADDMGLGKTLTLLSLIAFDRYGNASTSTPTEEPLDGEGDKIEKKGKKRGRGKSSESVTRKKLKTDDVVGMNVSQKTTLIVCPPSVISAWITQLEEHTVPGILKVYMYHGGERTDDVNELMKYDIVLTTYGTLAVEESWEDSPVKKMEWLRIILDEAHTIKNANAQQSRVVCKLKASRRWAVTGTPIQNGSFDLYSLMAFLRFEPFSIKSYWQSLIQRPLGQGNKKGLSRLQVLMATISLRRTKEKSLIGLPPKTVETCYVELSPEERQLYDHMEGEAKGVVQNLINNGSLMRNYSTVLSIILRLRQLCDDMSLCPPELRSFTTSTSVEDVTDKPELLQKLVAALQDGEDFDCPICISPPTNIIITRCAHIFCRACILQTLQRSKPLCPLCRGSLTQSDLYNAPPPPPDSSNTDGEDAKSSTKSSKVSALLSLLMASRQENPNTKSVVFSQFRKMLLLLETPLKAAGFTILRLDGAMTVKKRTQVIGEFGNPELTGPVVLLASLKASGTGINLTAASRVYLFDPWWNPAVEEQAMDRIHRIGQKQEVKMIRMIARNSIEERVLELQQKKKNLANEAFKRRQKKDEREVNVEDVVALMSL | failed
MAQNPERRAALVNAAIEVLAREGARGLTFRAVDVEANVPKGTASNYFPSRDDLFDQVGKRIHERLGPDPSVVEESGRKPQNLELAIEYMQGLFGRITRDRTGYLALQELRLEAVRRPELRTTLTRTISENLKRDIGFHLDSGLPGDRSTVLMLYLAMNALIVEHLTLPGVLEGVDTERLVADLVTRAVATPDA | not failed
MAQREIRLVDNEYPSPSMTHPPIPLSDIALTGIFEISKILTSPARLEITLANVVNLLQSFLQMRNGVVSLLADDGVPDITVGVGWNEGSDNRYRARLPQKAIDQIVATAVPLVADNVSAHPMFTAADAMALGATDEIRVSFIGVPIRIDSRVVGTLSIDRVRDGRSHFRMDADVRFLTMVANLIGQTVKLHRVVARDRERLMAESHRLQKELS | failed
MAQSFLLMGALIQHHLKGEKADLLTPEKLLEAANKQGTVPSRVRYQWMEDEETGRLKAVGYHTSMESGRDQVRVRLLKHDFPNNRYEFWEEGATGPTILWTPDNPGIELPTDTAHGEQPVIPSAIPGLEIPEMDDVSILATPMPDEKDFRDYILVFPENAFPPIYVYLSKKIDTPIWLEHHHHHH | not failed
MAQVINEMDVPSHSFVFHGTGERYFLICVVNVLLTIITLGIYLPWALMKCKRYLYANMEVNGQRFSYGITGGNVFFSCLVFVFFYFAILMTVSADMPLIGCVLTLSLLVLLIFMAAKGLRYQALMTSLNGVRFSFNCSMKGVWWVTFFLPILMAIGMGTVFFISTKMLHANSSSSVIVSVVLMAIVGIVSIGIFNGTLYSLVMSFLWSNTSFGIHRFKVKLDTAYCIKYAILAFLALLPFLAVAGYIIFDQILNAYDSSVYANDDIENLQQFMEMQRKMIIAQLIYYFGIAVSTSYLTVSLRNHFMSNLSLNDGRIRFRSTLTYHGMLYRMCALVVISGITGGLAYPLLKIWMIDWQAKNTYLLGDLDDLPLINKEEQPDKGFLASISRGIMPSLPFL | failed
MAQYPEQLNGIFQALADPTRRAVLGRLSRGPATVSELAKPFDMALPSFMKHIHFLEDSGWIRTHKQGRVRTCAIEKEPFTAVEAWLAEQQELWESRTDRLEQFVTEHTVTAHAKATPQ | not failed
MAREFKRSDRVAQEIQKEIAVILQREVKDPRIGMVTVSDVEVSSDLSYAKIFVTFLFDHDEMAIEQGMKGLEKASPYIRSLLGKAMRLRIVPEIRFIYDQSLVEGMRMSNLVTNVVREDEKKHVEESN | not failed
MARIIRRPLNLTAAVRFRLSPLSPFSGNSGSINSETTSWSELIRVPSLVEGCDYKHWLVLMKPPNGYPTRNHIVQSFVETLAMALGSEEEAKRSIYSVSTKYYYAFGCRIHEPLTYKIRSLPDVKWVLPDSFIVDGDNRYGGEPFVDGEVVPYDEKYHADWLRDQTDEDAKSGVVKKKHRRKRKKKLI | failed
MARLILERFLQEHEETPPSKSIINSMLRDPSQIPDGVLANQVYQCIVNDCCYGPLVDCIKHAIGHEHEVLLRDLLLEKNLSFLDEDQLRAKGYDKTPDFILQVPVAVEGHIIHWIESKASFGDECSHHAYLHDQFWSYWNRFGPGLVIYWYGFIQELDCNRERGILLKACFPTNIVTLCHSIA | failed
